Test results taken from patent US20260265697A1, “COMPOSITIONS AND METHODS OF PREPARING AIRWAY CELLS” (Yale University, priority 2014, published 2026).

Assays:
[1] = test system: iPS cell-derived DE cells; assay: Anterior foregut endoderm (AFE) differentiation of DE cells, FOXA2+SOX2+ cells by flow cytometry; type: cell-based, human; conditions: day 7, flow cytometry, FIG. 3A
Description: (§1) Subsequently, the DE cells were trypsinized and replated on human ECM protein coated plates and were differentiated to anterior foregut endoderm (AFE) by exposing them sequentially between days d5 to d7 to combinations of the small molecule inhibitors in IMDM with 10% FBS, 2 mM L-glutamine, 1 mM nonessential amino acids, 1% antibiotic-antimycotic.
For flow cytometry, cells were fixed with the fixation solution from the Fixation/Permeabilization kit (BD Biosciences), and stained with primary and detection antibodies as described by the manufacturer. Briefly cells were dissociated into single-cell suspensions by incubation with 0.25% trypsin for 2 min. The dissociated cells were resuspended (0.5×10^6 cells) in 250 μl of fixation/permeabilization solution, kept on ice for 20 min, and washed twice with Perm/Wash buffer. […] The cells were resuspended in 350 μl of Perm/Wash buffer after incubation with corresponding conjugated secondary for 30 min on ice, washed twice, and analyzed by flow cytometry. […]
BMP4 signaling is required for lung specification and an increase in bFGF and WNT concentration increases NKX2.1^+immature lung progenitors. […] The numbers of cells double positive for FOXA2^+SOX2^+anterior endoderm cells were quantified out of the total FOXA2^+endoderm cells by flow cytometry.

[2] = test system: iPS cell-derived DE cells; assay: Lung endoderm specification of DE cells, NKX2.1+ and NKX2.1+FOXA2+ cells; type: cell-based, human; conditions: FIG. 3B
Description: as §1
Then AFE cells were maintained in lung endoderm differentiation medium consisting of IMDM with 20% FBS, 2 mM L-glutamine, 1 mM nonessential amino acids, 1% antibiotic-antimycotic, retinoic acid (0.5 μM), bFGF (10 ng/ml), BMP4 (10 ng/ml), Wnt3a (100 ng/ml), and KGF (10 ng/ml each) for 5 days. […]
For flow cytometry, cells were fixed with the fixation solution from the Fixation/Permeabilization kit (BD Biosciences), and stained with primary and detection antibodies as described by the manufacturer. […] The cells were resuspended in 350 μl of Perm/Wash buffer after incubation with corresponding conjugated secondary for 30 min on ice, washed twice, and analyzed by flow cytometry.
NKX2.1^+is the earliest marker of cells that distinguish future lung from other derivatives of the foregut endoderm. […] The percentages of NKX2.1^+ cells were quantified as percentages of the total cells present. […]

human iPS cells = assay: Differentiation of human iPS cells to definitive endoderm (DE), flow cytometry at day 5; type: cell-based
Description: iPS cells were first differentiated towards definitive endoderm (DE). DE cells were initiated under conditions described previously. Briefly, iPS cells were cultured in RPMI 1640 medium supplemented with 100 ng/ml activin A, 2 mM L-glutamine and 1% antibiotic-antimycotic for 48 hours. Then, 1×B27 supplement and 0.5 mM sodium butyrate were added into the same medium and iPS cells were cultured in this medium for 3 days with daily medium changes.
For flow cytometry, cells were fixed with the fixation solution from the Fixation/Permeabilization kit (BD Biosciences), and stained with primary and detection antibodies as described by the manufacturer. Briefly cells were dissociated into single-cell suspensions by incubation with 0.25% trypsin for 2 min. The dissociated cells were resuspended (0.5×10^6 cells) in 250 μl of fixation/permeabilization solution, kept on ice for 20 min, and washed twice with Perm/Wash buffer. After blocking with blocking solution for 30 min on ice, the cells were incubated with corresponding primary antibody in the blocking solution for 30 min on ice. The cells were resuspended in 350 μl of Perm/Wash buffer after incubation with corresponding conjugated secondary for 30 min on ice, washed twice, and analyzed by flow cytometry.
Human iPS cells were differentiated to DE cells using serum free conditions (FIG. 1). By exposing iPS cells to saturating concentrations of activin A, greater than 85% endodermal cells were generated. […] 89% of cells were positive for c-kit (FIG. 2A), 91% positive for SOX17 (FIG. 2C), 93% positive for FOXA2 (FIG. 2B), and 88% of the cells expressed the endoderm surface marker CXCR4 (FIG. 2D) in clone C1.

[3] = day 5, flow cytometry, clone C1

B1: activin A (protein, UniProt P08476 311-426, looked up)
Inhibin beta A chain: GLECDGKVNICCKKQFFVSFKDIGWNDWIIAPSGYHANYCEGECPSHIAGTSGSSLSFHSTVINHYRMRGHSPFANLKSCCVPTKLRPMSMLYYDDGQNIIKKDIQNMIVEECGCS
modifications: Inhibin beta A chain
notes: agent that induces differentiation of iPS cells to definitive endoderm cells
[1]
  number of FOXA2+SOX2+ anterior endoderm cells out of total FOXA2+ endoderm cells: rare
[2]
  number of NKX2.1+ cells (percentage of total cells): few
Human iPS cells; [3]
  cells expressing endoderm surface marker CXCR4: 88%
  cells positive for FOXA2: 93%
  cells positive for SOX17: 91%
  cells positive for c-kit: 89%
Human iPS cells; saturating concentrations of activin A, serum free conditions
  endodermal cells generated: greater than 85%
